According to publication PMC3215728:
One block for each substance: values may come before it.

What was measured:
[1] = target: CFP-dysferlin / YFP-dysferlin (full-length human dysferlin) expressed in HEK293 cells (human) (UniProt O75923); assay: fluorescence correlation spectroscopy (FCS); YFP-dysferlin diffusing in detergent solution, Triton X-100; 2-species fit; settings: remark: other sources report otherwise
[2] = target: CFP-dysferlin / YFP-dysferlin (full-length human dysferlin) expressed in HEK293 cells (human) (UniProt O75923); assay: FRET or BRET; three-cube fluorescence microscopy (E-FRET), pixel by pixel, CFP-dysferlin and YFP-dysferlin in living HEK293 cells; settings: remark: other sources report otherwise
[3] = target: CFP-dysferlin / YFP-dysferlin (full-length human dysferlin) expressed in HEK293 cells (human) (UniProt O75923); assay: photon counting histogram (PCH); detergent solubilized YFP-dysferlin in CHAPS or DDM; molecular brightness normalised to monomeric YFP; settings: remark: other sources report otherwise
[4] = target: CFP-dysferlin / YFP-dysferlin (full-length human dysferlin) expressed in HEK293 cells (human) (UniProt O75923); assay: fluorescence correlation spectroscopy (FCS); YFP-dysferlin diffusing in detergent solution, 1% CHAPS or 0.5% DDM; single species diffusion model; settings: remark: other sources report otherwise
[5] = target: CFP-dysferlin / YFP-dysferlin (full-length human dysferlin) expressed in HEK293 cells (human) (UniProt O75923); assay: FRET or BRET; acceptor-selective photobleaching FRET between CFP- and YFP-tagged copies in living HEK293 cells; linearity of donor against acceptor for stoichiometry; hyperbolic fit of FRET against YFP intensity gives FRETmax and KD in arbitrary units; settings: remark: other sources report otherwise
[6] = target: CFP-dysferlin / YFP-dysferlin (full-length human dysferlin) expressed in mouse FDB muscle fibers (human) (UniProt O75923); assay: FRET or BRET; acceptor-selective photobleaching FRET between CFP-dysferlin and YFP-dysferlin in living FDB muscle fibers isolated from electroporated dysferlin-deficient mice; settings: remark: other sources report otherwise
[7] = target: Endogenous dysferlin from rabbit skeletal muscle (rabbit (endogenous in skeletal muscle)); assay: cross-linking; rabbit skeletal muscle microsomes with or without 100 µM o-PDM on ice for 30 min; SDS-PAGE and western blot
[8] = target: His6-tagged dysferlin (human) (UniProt O75923); assay: SEC; Superose 6 HR 10/30 FPLC; mobile phase 1% CHAPS, 150 mM NaCl, 50 mM Tris pH 7.5, 0.4 ml/min; fractions blotted with Hamlet antibody; monomer to dimer; settings: remark: other sources report otherwise

- percent of molecules diffusing as the slower (dimer) species [1]: 17%
- FRET efficiency [2]: 20.6%
- stoichiometry N [3]: 2
- stoichiometry N [4]: 2
- FRETmax [5]: 26.8%
- stoichiometry N [5]: 2
Substance: CFP-dysferlin / YFP-dysferlin (full-length human dysferlin) expressed in HEK293 cells, O75923 1-2080

- FRETmax [6]: 33.3%
- stoichiometry N [6]: 2
Substance: CFP-dysferlin / YFP-dysferlin (full-length human dysferlin) expressed in mouse FDB muscle fibers, O75923 1-2080

- stoichiometry N [7]: 2
Substance: Endogenous dysferlin from rabbit skeletal muscle (natural protein)

- stoichiometry N [8]: 2
Substance: His6-tagged dysferlin, O75923 1-2080
